# Data reported in PMC12678800.
# Numbering of substitutions follows the chain as printed.
# T1: TkoTpt1 (Thermococcus kodakarensis, UniProt Q5JFX3 1-180)
# T1 sequence: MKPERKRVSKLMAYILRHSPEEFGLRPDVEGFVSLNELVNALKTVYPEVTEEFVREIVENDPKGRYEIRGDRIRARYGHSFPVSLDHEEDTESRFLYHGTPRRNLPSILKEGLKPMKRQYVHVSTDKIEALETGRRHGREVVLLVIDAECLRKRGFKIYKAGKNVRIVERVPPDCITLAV
# T2: TkoTpt1 K63A (Thermococcus kodakarensis, UniProt Q5JFX3 1-180, K63A)
# T2 sequence: T1 sequence with K63A
# What was measured:
# [1] = biological target: T1, TkoTpt1; test: X-ray crystallography
# [2] = biological target: T2, TkoTpt1 K63A; test: X-ray crystallography
Binder,binding result [1],binding result [2]
"AAAAAAAAAA (ssDNA, 5'-phosphate (lost to NAD+ in the Appr>P complexes, giving 5'-OH DNA)) [5'-p-DNA (oligo dA10)]",binds,–
"AAAAAAAAAA (ssDNA, 5'-phospho-ADP-ribosylated, formed in situ from 5'-p-DNA and NAD+) [5'-p-ADPR-DNA (dA10 intermediate)]",–,binds
